# Data from patent US20180016324A1 (Regeneron, published 2018).
# Where a chain is given by its changes, count along the chain named.
# B1: H4H25622P (antibody, V domains shown)
# VH: QVQLVESGGGVVQPGRSLRLSCAASGFTFSSYGMHWVRQAPGKGLEWLAIIWYDGTNKQYVDSVKGRFTISRDNSKNTLYLQLNSLRAEDTAVYYCARQDFYYYYGMDVWGQGTTVTVSS
# VL: not shown
# B2: H4H25592P (antibody, V domains shown)
# VH: QVQLVESGGGVVQPGRSLRLSCAASGFTFSYSGMHWVRQAPGKGLEWVAVISYDGSNKYYADSVKGRFTISRDNSNNILYLQMNSLRAEDTAVYYCAKDWGGRFDPWGQGTLVTVSS
# VL: DIQMTQSPSSLSASVGDRVTITCRASQGISSYLAWYQQIPGKVPKLLIYAASTLHSGVPSRFSGSGSGTDFTLTISSLQPADVATYYCQKYNSAPLTFGGGTKVEIK
# B3: H4H25640P (antibody, V domains shown)
# VH: B2 VH with S32Y, S52L, Y59F, A61S, N76R, I78T, A88L, W100Y, P106Y
# VL: EIVLTQSPGTLSLSSGERATLSCRASQSVSNKYLAWYQQKPGQVPRLLIYGASNRATGIPDRFSGSGSGTDFTLTINRLEPEDFAVFYCQQYGSTPSTFGQGTKVEIK
# B4: H4H25641P (antibody, V domains shown)
# VH: B2 VH with S32Y, G55A, K58N, A61V, N76K, I78T, W100Y, P106Y
# VL: EIVLTQSPGTLSLSPGERATLSCGASQSVSSYLAWYQQKPGQTPRLLIYGASSRATGIPDRFSGSGSGTDFTLTISRLEPEDFAVYYCQQYGSSPWTFGQGTKVEIK
# B5: H4H25637P (antibody, V domains shown)
# VH: QLQLQESGPGLVKPSETLSLTCTVSGDSISSSNYFWGWIRQPPGKGLEWIGNIYYSGDTYYNPSLKSRVTMSVDTSKKQFSLKLRSVTAADTAVYYCARGRPYYDFWSGYFDYWGQGTLVTVSS
# VL: EIVLTQSPGTLSLSPGERATLPCRASQSVSSSYLAWYQQKPGQAPRLLIYGASSRATGIPDRFRGSGSGTDFTLTISRLEPEDFAVYYCQQYGTAPWTFGQGTKVEIK
# B6: H4H25617P (antibody, V domains shown)
# VH: EVQLVESGGGLVQPGGSLRLSCSASGFTFTTYAMSWVRQAPGRGLEWVSSISGTGVSTYYADSVKGRFTISRDNSKNALYLQMNSLTAEDTAVYYCAKDSGTYHWGQGTLVTVSS
# VL: EIVLTQSPATLSLSPGERATLSCRASQSVDSYLAWYQQKPGQAPRLLIYDASNRATGIPARFSGSGSGTDFTLTISSLESEDFAVYYCQQRRNWPQFTFGGGTKVEIK
# B7: H4H25598P (antibody, V domains shown)
# VH: EVQLVESGGGLVQPGGSLRLSCAASGFTVSSNYMSWVRQAPGSGLEWVSVIYSGGITHYIGSVKGRFTISRHNSKNTLYLQMNSLRAEDTAMYYCARERYSGITGNPYGFDFWGQGTMVTVSS
# VL: DIQLTQSPSFLSASVGDRVTITCWASQDISSYLAWYQQKPGIAPKLLIYSASTLQSGVPSSFSGSGSGTEFTLTISSLQPEDFATYYCQQLNIYPFTFGPGTKVDIK
# B8: H4H25602P (antibody, V domains shown)
# VH: B7 VH with I60V, G61D, F112I
# VL: B7 VL with S50A, S61R
# Target: T1, ZIKV (prM80E) with a C-terminal myc-myc-hexahistidine tag (Zika virus, UniProt A0A024B7W1 104-694)
# T1 construct: also called ZIKV (prM80E)-mmH; ZIKV-mmH
# Test: SPR, mAb captured, 37C, pH 7.4
Binder,koff [s⁻¹],t½ [min]
B1,0.00318,3.63
B2,0.00174,6.63
B3,0.00172,6.72
B4,0.0191,0.61
B5,0.0118,0.98
B6,0.00602,1.92
B7,0.000397,29.1
B8,0.000356,32.5

# Target: T1, ZIKV (prM80E) with a C-terminal …
# Test: SPR, mAb captured, 37C, pH 5.0 chase
Binder,koff [s⁻¹],t½ [min]
B1,0.000704,16.4
B2,0.00658,1.8
B3,0.00337,3.4
B4,0.0133,0.9
B5,0.00228,5.1
B6,0.00464,2.5
B7,0.114,0.1
B8,0.097,0.1

# Target: T2, ZIKV prM/E polyprotein on virus-like particles (VLPs) from HEK293T/17 cells (Zika virus, UniProt A0A024B7W1 123-795)
# T2 construct: also called ZIKV prM/E VLPs; Zika prM/E VLPs
# Test: MSD ECL, VLPs on plate; high concentrations excluded from fit
row,Binder,EC50 [nM]
1,B3,0.102

# Target: T1, ZIKV (prM80E) with a C-terminal …
# Test: SPR, mAb captured, 37C
row,Binder,t½ pH 7.4/t½ pH 6.0
1,B1,0.7
2,B2,2.9
3,B3,1.9
4,B4,0.8
5,B5,0.3
6,B6,0.8
7,B7,32.4
8,B8,34.1

# Target: T2, ZIKV prM/E polyprotein on virus-like …
# Test: MSD ECL, VLPs on plate
row,Binder,EC50 [nM]
1,B1,2.44
2,B2,0.213
3,B4,2.87
4,B5,0.322
5,B6,0.755
6,B7,0.426
7,B8,1.56

# Target: ZIKV envelope glycoprotein (E) of strain MR766 (Uganda 1947) (Zika virus, UniProt Q32ZE1 291-790)
# Test: cell-based or functional assay
row,Binder,"neutralization IC50, Vero cells [nM]"
1,B1,0.188
2,B2,0.0426
3,B3,0.0279
4,B4,0.0371
5,B5,0.0671
6,B6,0.166
7,B7,0.0545
8,B8,0.0531

# Target: ZIKV envelope glycoprotein (E) of strain FLR (Colombia 2015) (Zika virus)
# Test: cell-based or functional assay
row,Binder,"neutralization IC50, Vero cells [nM]"
1,B1,1.58
2,B2,0.553
3,B3,0.099
4,B4,0.212
5,B5,0.134
6,B6,0.552
7,B7,0.553
8,B8,0.63

# Target: ZIKV envelope glycoprotein (E) of strain PRVABC59 (Puerto Rico 2015) (Zika virus)
# Test: cell-based or functional assay
row,Binder,"neutralization IC50, Vero cells [nM]"
1,B1,1.28
2,B2,0.218
3,B3,0.166
4,B4,0.356
5,B5,0.239
6,B6,0.543
7,B7,0.398
8,B8,0.501

# Target: T1, ZIKV (prM80E) with a C-terminal …
# Test: SPR, mAb captured, 25C
Binder,Kd [nM],koff [s⁻¹],kon [M⁻¹ s⁻¹],t½ [min]
B1,5.31,0.00133,251000,8.7
B2,0.502,0.000676,1.35e+06,17.1
B3,0.597,0.000722,1.21e+06,16
B4,8.75,0.00922,1.05e+06,1.3
B5,6.33,0.00391,617000,3
B6,7.9,0.00197,250000,5.9
B7,0.156,4.49e-05,289000,257
B8,0.07,1.95e-05,286000,592

# Target: T1, ZIKV (prM80E) with a C-terminal …
# Test: SPR, mAb captured, 37C
# Remark: another data set of the same source
Binder,Kd [nM],koff [s⁻¹],kon [M⁻¹ s⁻¹],t½ [min]
B1,9.07,0.00267,295000,4.3
B2,1.02,0.00165,1.61e+06,7
B3,1.27,0.00186,1.47e+06,6.2
B4,11.9,0.0188,1.59e+06,0.6
B5,9.97,0.00989,992000,1.2
B6,16.1,0.00729,452000,1.6
B7,0.7,0.000284,406000,40.7
B8,0.745,0.000284,381000,40.6

# Target: T1, ZIKV (prM80E) with a C-terminal …
# Test: SPR, mAb captured, 37C
# Remark: another data set of the same source
Binder,t½ pH 7.4/t½ pH 5.0,t½ pH 7.4/t½ pH 5.5
B1,0.2,0.6
B2,3.8,4.2
B3,2,2.3
B4,0.7,1.1
B5,0.2,0.4
B6,0.8,0.8
B7,288,187
B8,272,134

# Target: T1, ZIKV (prM80E) with a C-terminal …
# Test: SPR, mAb captured, 37C, pH 5.5 chase
Binder,koff [s⁻¹],t½ [min]
B1,0.00178,6.49
B2,0.00736,1.57
B3,0.00402,2.87
B4,0.0204,0.57
B5,0.00414,2.79
B6,0.00465,2.48
B7,0.0741,0.16
B8,0.0476,0.24

# Target: T1, ZIKV (prM80E) with a C-terminal …
# Test: SPR, mAb captured, 37C, pH 6.0 chase
Binder,koff [s⁻¹],t½ [min]
B1,0.00234,4.93
B2,0.00503,2.3
B3,0.00323,3.58
B4,0.0159,0.73
B5,0.00392,2.95
B6,0.00494,2.34
B7,0.0129,0.9
B8,0.0122,0.95
